According to patent publication US20190225669A1 (ACCELERON PHARMA, published 2019):
Like-named read-outs stand apart in the source and are kept apart here.

Experiments:
TGFβ1 [1] = target: T1, TGFβ1 (human, UniProt P01137 279-390); assay: Biacore SPR
T1 construct: Human (PeproTech) is stated for the A549 reporter assay; also called TGF-beta1
Protocol: (§1) A Biacore™-based binding assay was used to compare ligand binding selectivity of the TGFβRIISHORT-Fc:ALK1-Fc heterodimeric complex described above with that of TGFβRIISHORT-Fc and ALK1-Fc homodimeric complexes. […] Ligands were injected and allowed to flow over the captured receptor protein.

TGFβ2 [2] = target: T2, TGFβ2 (human, UniProt P61812 303-414); assay: Biacore SPR; kinetics indeterminate (transient)
T2 construct: Human (PeproTech) is stated for the A549 reporter assay; also called TGF-beta2
T2 sequence (looked up): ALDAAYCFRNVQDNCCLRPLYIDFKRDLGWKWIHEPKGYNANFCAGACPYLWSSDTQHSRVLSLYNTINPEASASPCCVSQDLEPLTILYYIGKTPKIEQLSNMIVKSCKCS
Protocol: as §1

TGFβ1 [3] = target: T1, TGFβ1; assay: Biacore SPR; remark: listed apart in the source
Protocol: (§2) The heteromeric or homomeric protein complexes were independently captured onto the system using an anti-Fc antibody. Ligands were injected and allowed to flow over the captured receptor protein.

TGFβ2 [4] = target: T2, TGFβ2; assay: Biacore SPR
Protocol: as §2

TGFβ1 [5] = target: T1, TGFβ1; assay: cell-based or functional assay
TGFβ2 [6] = target: T2, TGFβ2; assay: cell-based or functional assay
BMP6 [7] = target: T3, BMP6 (UniProt P22004 382-513, limits assumed); assay: Biacore SPR
T3 sequence (looked up): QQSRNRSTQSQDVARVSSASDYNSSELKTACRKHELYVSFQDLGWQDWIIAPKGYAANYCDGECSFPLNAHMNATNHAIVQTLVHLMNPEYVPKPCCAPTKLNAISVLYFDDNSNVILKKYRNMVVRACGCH

BMP9 [8] = target: T4, BMP9 (UniProt Q9UK05 320-429); assay: Biacore SPR
T4 construct: also called GDF2
T4 sequence (looked up): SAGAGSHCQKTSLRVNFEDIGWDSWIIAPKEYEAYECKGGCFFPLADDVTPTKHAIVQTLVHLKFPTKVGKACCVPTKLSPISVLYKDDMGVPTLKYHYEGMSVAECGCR
Protocol: (§3) Ligands were injected and allowed to flow over the captured receptor protein.

BMP6 [9] = target: T3, BMP6; assay: Biacore SPR; remark: listed apart in the source
Protocol: as §3

BMP10 [10] = target: T5, BMP10 (UniProt O95393 317-424); assay: Biacore SPR
T5 sequence (looked up): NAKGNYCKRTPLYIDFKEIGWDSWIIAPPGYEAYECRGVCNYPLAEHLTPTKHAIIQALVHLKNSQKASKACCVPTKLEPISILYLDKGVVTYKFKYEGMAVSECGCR
Protocol: as §3

BMP15 = target: T6, BMP15 (UniProt O95972 268-392); assay: Biacore SPR
T6 construct: also called GDF9b
T6 sequence (looked up): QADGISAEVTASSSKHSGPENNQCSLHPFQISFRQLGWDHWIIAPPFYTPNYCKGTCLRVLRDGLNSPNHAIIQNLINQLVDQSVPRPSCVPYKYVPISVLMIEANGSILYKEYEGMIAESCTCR
Protocol: as §3

BMP4 = target: T7, BMP4 (UniProt P12644 293-408); assay: Biacore SPR
T7 sequence (looked up): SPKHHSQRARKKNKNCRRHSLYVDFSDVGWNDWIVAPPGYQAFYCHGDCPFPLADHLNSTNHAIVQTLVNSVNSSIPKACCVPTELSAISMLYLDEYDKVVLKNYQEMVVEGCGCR
Protocol: as §3

GDF6 = target: T8, GDF6 (UniProt Q6KF10 336-455, limits assumed); assay: Biacore SPR
T8 construct: also called BMP13
T8 sequence (looked up): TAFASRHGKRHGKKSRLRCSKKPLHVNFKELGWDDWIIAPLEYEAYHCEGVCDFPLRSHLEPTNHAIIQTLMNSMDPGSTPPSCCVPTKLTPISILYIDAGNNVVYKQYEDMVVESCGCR
Protocol: as §3

BMP5 [11] = target: T9, BMP5 (UniProt P22003 317-454, limits assumed); assay: Biacore SPR
T9 sequence (looked up): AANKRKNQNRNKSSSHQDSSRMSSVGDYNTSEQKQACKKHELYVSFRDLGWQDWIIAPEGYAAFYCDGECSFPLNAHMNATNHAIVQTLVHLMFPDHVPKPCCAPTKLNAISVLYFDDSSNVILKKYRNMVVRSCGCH
Protocol: as §3

BMP7 = target: T10, BMP7 (UniProt P18075 293-431); assay: Biacore SPR
T10 sequence (looked up): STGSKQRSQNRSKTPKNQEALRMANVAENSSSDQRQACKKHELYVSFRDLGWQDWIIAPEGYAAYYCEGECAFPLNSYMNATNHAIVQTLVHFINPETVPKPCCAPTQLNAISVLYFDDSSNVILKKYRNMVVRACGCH
Protocol: as §3

BMP2 = BMP2 (UniProt P12643 283-396); assay: Biacore SPR
Protocol: as §3

BMP9 [12] = target: T4, BMP9; assay: Biacore SPR; remark: listed apart in the source
Protocol: as §3

BMP6 [13] = target: T3, BMP6; assay: Biacore SPR; remark: listed apart in the source
Protocol: as §3

BMP10 [14] = target: T5, BMP10; assay: Biacore SPR; remark: listed apart in the source
Protocol: as §3

GDF3 = target: T11, GDF3 (UniProt Q9NR23 251-364); assay: Biacore SPR
T11 sequence (looked up): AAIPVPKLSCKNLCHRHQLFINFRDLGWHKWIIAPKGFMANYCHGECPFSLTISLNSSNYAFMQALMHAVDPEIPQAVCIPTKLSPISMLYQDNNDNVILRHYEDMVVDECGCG
Protocol: as §3

activin B = target: T12, activin B (UniProt P09529 293-407); assay: Biacore SPR
T12 sequence (looked up): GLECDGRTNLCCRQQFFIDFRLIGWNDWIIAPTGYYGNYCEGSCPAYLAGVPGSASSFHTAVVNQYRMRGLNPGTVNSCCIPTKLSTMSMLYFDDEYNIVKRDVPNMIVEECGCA
Protocol: as §3

activin A = target: T13, activin A (UniProt P08476 311-426); assay: Biacore SPR
T13 sequence (looked up): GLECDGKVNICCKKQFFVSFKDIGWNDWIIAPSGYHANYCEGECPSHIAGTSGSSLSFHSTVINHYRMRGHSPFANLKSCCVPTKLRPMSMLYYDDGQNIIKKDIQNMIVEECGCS
Protocol: as §3

GDF11 = target: T14, GDF11 (UniProt O95390 299-407); assay: Biacore SPR
T14 construct: also called BMP11
T14 sequence (looked up): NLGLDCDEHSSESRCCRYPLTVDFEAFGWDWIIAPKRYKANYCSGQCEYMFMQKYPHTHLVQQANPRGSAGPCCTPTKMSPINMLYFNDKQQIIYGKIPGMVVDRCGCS
Protocol: as §3

BMP5 [15] = target: T9, BMP5; assay: Biacore SPR; remark: listed apart in the source
Protocol: as §3

GDF8 = target: T15, GDF8 (UniProt O14793 267-375); assay: Biacore SPR
T15 construct: also called myostatin
T15 sequence (looked up): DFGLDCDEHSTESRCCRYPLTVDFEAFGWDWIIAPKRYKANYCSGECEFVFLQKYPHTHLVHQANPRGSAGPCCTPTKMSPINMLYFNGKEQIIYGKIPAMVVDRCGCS
Protocol: as §3

T1 sequence (P01137 279-390 limits assumed): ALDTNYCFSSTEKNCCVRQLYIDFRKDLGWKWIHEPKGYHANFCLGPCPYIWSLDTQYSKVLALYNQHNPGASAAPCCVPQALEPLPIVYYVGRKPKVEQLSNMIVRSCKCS
BMP2, sequence (P12643 283-396 limits assumed): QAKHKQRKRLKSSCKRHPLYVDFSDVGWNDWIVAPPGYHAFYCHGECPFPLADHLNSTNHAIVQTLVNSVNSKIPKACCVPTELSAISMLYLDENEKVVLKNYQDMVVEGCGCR

B1: TGFβRIISHORT-Fc homodimer (Fc fusion)
chain: TIPPHVQKSVNNDMIVTDNNGAVKFPQLCKFCDVRFSTCDNQKSCMSNCSITSICEKPQEVCVAVWRKNDENITLETVCHDPKLPYHDFILEDAASPKCIMKEKKKPGETFFMCSCSSDECNDNIIFSEEYNTSNPD
TGFβ1 [1]
  Kd: 0.025 nM
TGFβ2 [2]
  Kd: > 44 nM
TGFβ1 [3]
  Kd: 0.02 nM
TGFβ2 [4]
  Kd: 11 nM
TGFβ1 [5]
  IC50 (pM), CAGA12-luciferase reporter gene assay in A549 cells, TGFβ1 at 640 pg/mL: 90 pM
TGFβ2 [6]
  IC50 (pM), CAGA12-luciferase reporter gene assay in A549 cells, TGFβ2 at 480 pg/mL: > 10000 pM

B2: BMPRII-Fc:ALK3-Fc heterodimer (Fc fusion)
chain 1: SQNQERLCAFKDPYQQDLGIGESRISHENGTILCSKGSTCYGLWEKSKGDINLVKQGCWSHIGDPQECHYEECVVTTTPPSIQNGTYRFCCCSTDLCNVNFTENFPPPDTTPLSPPHSFNRDETGGGTHTCPPCPAPELLGGPSVFLFPPKPKDTLMISRTPEVTCVVVDVSHEDPEVKFNWYVDGVEVHNAKTKPREEQYNSTYRVVSVLTVLHQDWLNGKEYKCKVSNKALPAPIEKTISKAKGQPREPQVYTLPPSRKEMTKNQVSLTCLVKGFYPSDIAVEWESNGQPENNYKTTPPVLKSDGSFFLYSKLTVDKSRWQQGNVFSCSVMHEALHNHYTQKSLSLSPGK
chain 2: GAQNLDSMLHGTGMKSDSDQKKSENGVTLAPEDTLPFLKCYCSGHCPDDAINNTCITNGHCFAIIEEDDQGETTLASGCMKYEGSDFQCKDSPKAQLRRTIECCRTNLCNQYLQPTLPPVVIGPFFDGSIRTGGGTHTCPPCPAPELLGGPSVFLFPPKPKDTLMISRTPEVTCVVVDVSHEDPEVKFNWYVDGVEVHNAKTKPREEQYNSTYRVVSVLTVLHQDWLNGKEYKCKVSNKALPAPIEKTISKAKGQPREPQVYTLPPSREEMTKNQVSLTCLVKGFYPSDIAVEWESNGQPENNYDTTPPVLDSDGSFFLYSDLTVDKSRWQQGNVFSCSVMHEALHNHYTQKSLSLSPG
notes: C-terminal Lys optional; also called BMPRII-Fc:ALK3 heterodimer
BMP6 [7]
  off-rate ratio against ALK3-Fc homodimer: ~10 fold
BMP9 [8]
  binding result: no binding
BMP6 [9]
  Kd: 1.6 nM
  koff: 0.00059 s⁻¹
  kon: 360000 M⁻¹ s⁻¹
BMP10 [10]
  Kd: 2.4 nM
  koff: 0.0016 s⁻¹
  kon: 680000 M⁻¹ s⁻¹
BMP15
  Kd: 6 nM
  koff: 0.0055 s⁻¹
  kon: 910000 M⁻¹ s⁻¹
BMP4
  Kd: 0.1 nM
  koff: 9.1e-05 s⁻¹
  kon: 910000 M⁻¹ s⁻¹
GDF6
  Kd: 1.4 nM
  koff: 0.0019 s⁻¹
  kon: 1.4e+06 M⁻¹ s⁻¹
BMP5 [11]
  Kd: 3.2 nM
  koff: 0.0014 s⁻¹
  kon: 430000 M⁻¹ s⁻¹
BMP7
  Kd: 1 nM
  koff: 0.012 s⁻¹
  kon: 1.2e+07 M⁻¹ s⁻¹
BMP2
  Kd: 0.051 nM
  koff: 0.00015 s⁻¹
  kon: 2.9e+06 M⁻¹ s⁻¹

B3: ALK7-Fc homodimer (Fc fusion, UniProt Q8NER5 22-113, looked up, not shown: a dimerising Fc or GST)
chain: LSPGLKCVCLLCDSSNFTCQTEGACWASVMLTNGKEQVIKSCVSLPELNAQVFCHSSNNVTKTECCFTDFCNNITLHLPTASPNAPKLGPME
notes: extracellular domain
BMP9 [12]
  binding result: no binding
BMP6 [13]
  binding result: no binding
BMP10 [14]
  binding result: no binding
GDF3
  binding result: no binding
Activin B
  binding result: no binding
Activin A
  binding result: no binding
GDF11
  binding result: no binding
BMP5 [15]
  binding result: no binding
GDF8
  binding result: no binding
